Experimental data published in patent EP4470554A1, “USE OF KALLIKREIN I OR DERIVATIVE THEREOF IN TREATMENT OF VCI, PSCI OR CSVD” (Zonhon Biopharma Institute, Inc., priority 2022, dated 2023).

Target: T1, LMWK (Homo sapiens, UniProt P01042)
T1 sequence (P01042 19-427 isoform P01042-2 limits assumed): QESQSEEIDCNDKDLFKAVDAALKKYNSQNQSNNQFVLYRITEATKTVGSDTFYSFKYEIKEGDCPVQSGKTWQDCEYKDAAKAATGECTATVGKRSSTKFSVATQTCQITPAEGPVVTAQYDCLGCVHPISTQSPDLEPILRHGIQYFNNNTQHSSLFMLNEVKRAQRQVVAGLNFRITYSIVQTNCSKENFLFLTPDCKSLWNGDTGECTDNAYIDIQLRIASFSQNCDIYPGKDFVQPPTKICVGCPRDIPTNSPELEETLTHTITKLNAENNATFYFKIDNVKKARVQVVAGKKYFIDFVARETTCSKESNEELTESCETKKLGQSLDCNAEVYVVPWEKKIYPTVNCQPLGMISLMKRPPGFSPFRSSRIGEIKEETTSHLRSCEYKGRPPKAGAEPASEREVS
Assay: In vitro activity evaluation based on natural substrates (enzymatic reaction with LMWK, bradykinin quantified by UPLC)
Assay type: biochemical
Conditions: 37°C, 15min
Method: This example compared the enzymatic reaction to produce the effector molecule bradykinin at different ratios of substrate (LMWK) to enzyme (KLK1 or its PEG modified KLK1). The produced effector molecules were separated by reverse phase chromatography, the peak area of the product is calculated, and the curve of bradykinin production with different ratios of substrate to enzyme was drawn. Compare the amount of effector molecules produced by different test samples under the same reaction methods. Through this in vitro method simulating the in vivo effect, the in vivo effects of different tested samples were indirectly compared.
Kb was KLK1 extracted from porcine pancreas. PEG-Kb was PEG10K-modified Kb. PEG10K-hKLK1X1 and PEG-Kb can be prepared according to the conventional method of polyethylene glycol modified drugs.
The samples were mixed according to the following table (in PEG modified samples, the molar mass of the modified active substance was converted). The mixed samples were placed in a 37°C thermostat, incubated for 15min, accurately timed, and the reaction was terminated by adding 50% acetic acid solution according to the volume ratio of 10:1.
After the termination of the reaction, the sample was placed in a desktop centrifuge, centrifuged at 12000rpm for 5min, and the supernatant was taken. Detect with Waters ACQUITY UPLC H-Class, the mobile phase A was 0.1% TFA-H2O, the mobile phase B was 0.1% TFA-ACN, the detection wavelength was 214nm, the column temperature was 30°C, the sample loading volume was 10µl, the flow rate was 0.2ml/min, the running time was 35min, and the running gradient was as follows: Table 3
According to the UPLC chromatograph results of the enzymatic reaction mixture, the chromatographic peak with retention time of 13±0.5min(the peak position of bradykinin) was integrated and summed, and compared with the peak area of per unit mass bradykinin (1mg/ml, loading volume 10µl) to calculate the concentration of bradykinin generated by the enzymatic reaction. The amount of bradykinin produced was calculated according to the total reaction system in Table 2, and finally converted to the amount of bradykinin(µg/mg) produced per milligram of enzyme at each molar ratio.

PEG-Kb: PEG10K-modified Kb [reference compound]
Bradykinin production (Molar ratio of substrate to enzyme 1: 1): 11.28 µg/mg (enzyme)
Bradykinin production (Molar ratio of substrate to enzyme 5: 1): 44.63 µg/mg (enzyme)
Bradykinin production (Molar ratio of substrate to enzyme 10: 1): 79.99 µg/mg (enzyme)
Bradykinin production (Molar ratio of substrate to enzyme 15: 1): 103.85 µg/mg (enzyme)
Bradykinin production (Molar ratio of substrate to enzyme 20: 1): 119.89 µg/mg (enzyme)
